# Assays:
# ROR1 = ROR1 (Homo sapiens, UniProt Q01973); assay: SPR / BLI binding kinetics to immobilised ROR1-hFc; parameters: ROR1-hFc or ROR2-hFc fusion proteins (extracelluar domains) were immobilised; conditions: for hROR1 Ka / hROR1 Ka (M^−1s^−1): association rate; for Kd: read-out: hROR1 KD
# Description: (§1) VNARs were genetically fused to engineered hIgG1 Fc domains via standard [G4S]3 that contained a cysteine substitution in the hIgG1 Fc sequence, S239C (EU numbering). The VNAR Fc fusion proteins were expressed as secreted protein in CHO K1 cells and purified from the media using MabSelect™ SuRe™ (Evitria, Switzerland). Purified proteins were analysed by SEC (AdvanceBio, Agilent), SDS PAGE and mass spectrometry to confirm sequence and protein integrity. Binding kinetics were determined using a Pioneer Surface Plasmon Resonance (SPR) instrument (SensiQ/Pall ForteBio), or the Biolayer Interferometry (BLI) Octet K2 system (ForteBio). ROR1-hFc or ROR2-hFc fusion proteins (extracelluar domains) were immobilised in sodium acetate pH5 buffer to COOH2 chips or AR2G sensors using amine coupling. VNARs and VNAR-Fc molecules were tested at various concentrations and the Ka (M^−1 s^−1), Kd (s^−1) and KD (nM) values were determined using QDat software (SensiQ/Pall ForteBio) or Octet Data Analysis High Throughput software (ForteBio) for Biolayer Interferometry. ROR1 2A2 mAb (Biolegend) and ROR2 mAb (R&D Systems) were included as controls for positive/negative binding to ROR1 and ROR2. 2V is a control VNAR sequence, derived from a naïve VNAR library, so is representative of this protein class but has no known target.
# (§2) Binding kinetics for binding of the multimeric VNAR proteins to ROR1-hFc or ROR2-hFc fusion proteins (extracelluar domains) were determined using a Pioneer Surface Plasmon Resonance (SPR) instrument (SensiQ/Pall ForteBio) or the Biolayer Interferometry (BLI) Octet K2 system (ForteBio) as previously described.
# human ROR2 = biological target: T1, human ROR2 (Homo sapiens, UniProt Q01974); assay: SPR / BLI binding to immobilised ROR2-hFc
# T1 construct: ROR1-hFc or ROR2-hFc fusion proteins (extracelluar domains) were immobilised
# Description: as §1, §2
# [1] = Mouse plasma stability of protein-PNU conjugates (LC-MS of released payload); format: in vitro ADME; conditions: 37° C., 4 μM protein
# Description: Different P3A1-hFc-PNU conjugates were incubated at 37° C. in mouse plasma at a final concentration of 4 μM of protein. Samples were analysed by LC-MS as a function of time and the amount of released PNU159682 and EDA-PNU159682 derivative was quantified by reference to calibration standards.
# PA-1 ROR1 ko = assay: In vitro cell viability assay (Cell Titre Glo), VNAR drug conjugates: PA-1 ROR1 ko; format: cell-based, human; conditions: for IC50: Table 5, 96 h, PA-1 ROR1 ko
# Description: (§3) In Vitro Cell Viability Assays for Cancer Cells Treated with Anti ROR1 VNAR Drug Conjugates
# (§4) Cells were seeded into white, clear bottom 96 well plates (Costar) and incubated at 37° C., 5% CO2 for 24 hours. On the following day, dilution series were set up for each test agent at ×10 working stocks. The dose response ×10 stock was: 10000, 5000, 1000, 500, 100, 50, 10, 5, 1, 0.5 nM etc. 10 μL of the ×10 stock solutions were added to the cell plates (90 μl per well) using a multichannel pipette. […] 100d of vehicle control (PBS) was added to the control wells (columns 11 and 12). Plates were incubated at 37′C, 5% CO2 for 72-96 hours. Promega Cell litre Glo reagent was used as per the manufacturer's instructions to assess cell viability. Briefly, assay plates were removed from incubator and allowed to equilibrate to room temperature before adding […] of room temperature Cell litre Glo reagent to each 100 μl assay well. Plates were placed on a plate shaker for 2 minutes at 600 rpm. Plates were allowed to sit for a further 10 minutes at room temperature prior to measuring luminescence read-out using a Clariostar plate-reader (BMG). Data was analysed by calculating the average for untreated (vehicle only) control wells and determining the % of control for each treated well. % of control data was then plotted against Log [Treatment] concentration and the IC50 value derived using non-linear regression fitting in GraphPad Prism software.
# (§5) The following cell lines were used: • Kasumi-2—human B cell leukaemia precursor; • PA-1—human ovarian cancer cell line; • PA-1 ROR1 ko—human ovarian cancer cell line with ROR1 knock-out; • 697—human B cell leukaemia precursor, and • MHH-ES1—human Ewing's sarcoma cell line.
# MHH-ES1 = assay: In vitro cell viability assay (Cell Titre Glo), VNAR drug conjugates: MHH-ES1; format: cell-based, human; conditions: for IC50: Table 5, 96 h
# Description: as §3, §4, §5
# [2] = Human plasma stability of protein-PNU conjugates (LC-MS of released payload); format: in vitro ADME; conditions: 37° C., up to 168 h, 4 or 2 uM PDC, LLOQ 0.1 or 0.156 uM
# Description: Different conjugates were incubated at 37° C. for 168 h in human plasma at a final concentration of 4 μM or 2 μM of protein. Samples were analysed by LC-MS as a function of time up to and including 168 h and the amount of released PNU159682 and EDA-PNU159682 derivative was quantified by reference to calibration standards.
# 697 = assay: In vitro cell viability assay (Cell Titre Glo), VNAR drug conjugates: 697; format: cell-based, human
# Description: as §3, §4, §5
# PA-1 = assay: In vitro cell viability assay (Cell Titre Glo), VNAR drug conjugates: PA-1; format: cell-based, human; conditions: for IC50: Table 5, 96 h
# Description: as §3, §4, §5
# Cathepsin B = Cathepsin B (Homo sapiens, UniProt P07858); assay: Cathepsin B treatment of protein-PNU conjugates, payload release; format: in vitro ADME; conditions: after treatment with Cat B; protein 10 uM (2VhFc conjugate 5 uM)
# Excerpt: Cathepsin B treatment of VNAR-hFc-vc-PAB-EDA-PNU conjugates and the corresponding conjugates of the multimeric proteins liberated free EDA-PNU159682 derivative in a quantitative fashion. Whereas, VNAR-hFc-va-EDA-PNU conjugates and the corresponding conjugates of the multimeric proteins were completely stable to Cathepsin B treatment.
# Only the vc-PAB-EDA-PNU releases payload on treatment with CatB as expected for the conditions used in this in vitro assay. The release is quantitative—as the conjugates have a drug to antibody ratio of 2, then twice the concentration of payload released versus the concentration of conjugate is expected after CatB treatment. This expectation matches the data shown in Table 11 for vc-PAB-EDA-PNU conjugates.
# Kasumi-2 = assay: In vitro cell viability assay (Cell Titre Glo), VNAR drug conjugates: Kasumi-2; format: cell-based, human; conditions: for IC50: Table 5, 96 h
# Description: as §3, §4, §5
# [3] = Table 3, VNAR-Fc fusions, dissociation rate
# [4] = ratio to corresponding non-binding 2V-hFc conjugate
# [5] = Table 3b, VNAR-Fc fusions, dissociation rate
molecule,measurement,setting,value
"hFc - P3A1: hIgG1 Fc - VNAR P3A1 fusion (protein, left off: a dimerising Fc or GST, hIgG1 Fc - VNAR P3A1 fusion) GGGGSGGGGSGGGGSTRVDQTPRTATKETGESLTINCVLTDTSYGLYSTSWFRKNPGTTDWERMSIGGRYVESVNKGAKSFSLRIKDLTVADSATYYCKAREARHPWLRQWYDGAGTVLTVN",hROR1 Ka,"ROR1; Table 3, VNAR-Fc fusions",2.38e+06 M⁻¹ s⁻¹
same,hROR1 Kd,ROR1; [3],0.000776 s⁻¹
same,Kd,"ROR1; Table 3, VNAR-Fc fusions",0.35 nM
same,hROR2,"human ROR2; Table 3, VNAR-Fc fusions",No binding
"P3A1hFc-PEG4-vc-PAB-EDA-PNU (conjugate, left off: a dimerising Fc or GST) TRVDQTPRTATKETGESLTINCVLTDTSYGLYSTSWFRKNPGTTDWERMSIGGRYVESVNKGAKSFSLRIKDLTVADSATYYCKAREARHPWLRQWYDGAGTVLTVNGGGGSGGGGSGGGGS","Concentration (nM) of free PNU payload detected by LC-MS, 4 h",[1]; 4 h,21 nM
same,"Concentration (nM) of free PNU payload detected by LC-MS, 24 h",[1]; 24 h,84 nM
same,"Concentration (nM) of free PNU payload detected by LC-MS, 48 h",[1]; 48 h,108 nM
same,"Concentration (nM) of free PNU payload detected by LC-MS, 72 h",[1]; 72 h,107 nM
same,"Concentration (nM) of free PNU payload detected by LC-MS, 96 h",[1]; 96 h,101 nM
same,"Concentration (nM) of free PNU payload detected by LC-MS, 120 h",[1]; 120 h,114 nM
same,IC50,PA-1 ROR1 ko,11 nM
same,ROR1 targeting/2V non-targeting window PA-1 31-J-06,"PA-1 ROR1 ko; ratio to corresponding non-binding 2V-hFc conjugate, PA-1 31-J-06 (ROR1 −/−; matches PA-1 ROR1 ko of Table 5)",1.3
same,IC50,MHH-ES1,24 nM
same,ROR1 targeting/2V non-targeting window MHH-ES1,MHH-ES1; [4],1.1
same,Observed EDA payload release,[2],EDA-PNU not detected above LLOQ
same,IC50,"697; Table 5, 96 h",52 nM
same,ROR1 targeting/2V non-targeting window 697,697; [4],1.2
same,IC50,PA-1,0.1 nM
same,ROR1 targeting/2V non-targeting window PA-1,PA-1; [4],73
same,Average Conc EDA Released,Cathepsin B,20.1 µM
same,IC50,Kasumi-2,3.2 nM
same,ROR1 targeting/2V non-targeting window Kasumi-2,Kasumi-2; [4],18
"P3A1 hFc: ROR1-specific VNAR P3A1 fused to engineered hIgG1 Fc domain (S239C) (protein, left off: a dimerising Fc or GST) TRVDQTPRTATKETGESLTINCVLTDTSYGLYSTSWFRKNPGTTDWERMSIGGRYVESVNKGAKSFSLRIKDLTVADSATYYCKAREARHPWLRQWYDGAGTVLTVNGGGGSGGGGSGGGGS",hROR1 Ka,"ROR1; Table 3, VNAR-Fc fusions",1.07e+07 M⁻¹ s⁻¹
same,hROR1 Kd,ROR1; [3],0.000564 s⁻¹
same,Kd,"ROR1; Table 3, VNAR-Fc fusions",0.084 nM
same,hROR2,"human ROR2; Table 3, VNAR-Fc fusions",No binding
"P3A1hFc(442)-PEG4-va-EDA-PNU (conjugate, left off: a dimerising Fc or GST) TRVDQTPRTATKETGESLTINCVLTDTSYGLYSTSWFRKNPGTTDWERMSIGGRYVESVNKGAKSFSLRIKDLTVADSATYYCKAREARHPWLRQWYDGAGTVLTVNGGGGSGGGGSGGGGS",IC50,PA-1 ROR1 ko,18.3 nM
same,IC50,MHH-ES1,37.5 nM
same,Observed EDA payload release,[2],No EDA-PNU detected at any time points
same,IC50,PA-1,0.025 nM
same,IC50,Kasumi-2,9.1 nM
"P3A1 hFc(442): VNAR P3A1 fused to engineered hIgG1 Fc with cysteine substitution S442C (EU numbering) (protein, left off: a dimerising Fc or GST) TRVDQTPRTATKETGESLTINCVLTDTSYGLYSTSWFRKNPGTTDWERMSIGGRYVESVNKGAKSFSLRIKDLTVADSATYYCKAREARHPWLRQWYDGAGTVLTVNGGGGSGGGGSGGGGS",hROR1 Ka (M^−1s^−1),"ROR1; Table 3b, VNAR-Fc fusions",2.70+05 M^−1s^−1
same,hROR1 Kd,ROR1; [5],0.0002 s⁻¹
same,hROR2,"human ROR2; Table 3b, VNAR-Fc fusions",No binding
"2V hFc: non-binding control VNAR 2V fused to hIgG1 Fc (protein, left off: a dimerising Fc or GST) TRVDQTPRTATKETGESLTINCVLTDTSYGLYSTSWFRKNPGTTDWERMSIGGRYVESVNKGAKSFSLRIKDLTVADSATYYCKAQSLAISTRSYWYDGAGTVLTVNGGGGSGGGGSGGGGS",hROR1 KD (nM),"ROR1; Table 3, VNAR-Fc fusions",No binding
same,hROR1 Ka (M^−1s^−1),"ROR1; Table 3, VNAR-Fc fusions",No binding
same,hROR1 Kd (s^−1),ROR1; [3],No binding
same,hROR2,"human ROR2; Table 3, VNAR-Fc fusions",No binding
"B1V15 hFc: humanised VNAR B1V15 (SEQ ID NO: 59) - hFc fusion (protein, left off: a dimerising Fc or GST) ASVTQSPRSASKETGESLTITCRVTGANYGLAATYWYRKNPGSSNQERISISGRYSESVNKRTMSFSLRISSLTVEDSATYYCKAYPWGAGAPWLVQWYDGQGTKLEVKGGGGSGGGGSGGGGS",hROR1 Ka,"ROR1; Table 3b, VNAR-Fc fusions",179000 M⁻¹ s⁻¹
same,hROR1 Kd,ROR1; [5],0.00013 s⁻¹
same,hROR2,"human ROR2; Table 3b, VNAR-Fc fusions",No binding

# — patent publication US20230241072A1, “ANTHRACYCLINE DERIVATIVES” (ALMAC DISCOVERY LIMITED, priority 2019, published 2023)
